Experimental data from publication PMC5062977 (Nucleic Acids Research, 2016).

T1: GST-RecA (E. coli, UniProt P0A7G6 2-353)
T1 sequence: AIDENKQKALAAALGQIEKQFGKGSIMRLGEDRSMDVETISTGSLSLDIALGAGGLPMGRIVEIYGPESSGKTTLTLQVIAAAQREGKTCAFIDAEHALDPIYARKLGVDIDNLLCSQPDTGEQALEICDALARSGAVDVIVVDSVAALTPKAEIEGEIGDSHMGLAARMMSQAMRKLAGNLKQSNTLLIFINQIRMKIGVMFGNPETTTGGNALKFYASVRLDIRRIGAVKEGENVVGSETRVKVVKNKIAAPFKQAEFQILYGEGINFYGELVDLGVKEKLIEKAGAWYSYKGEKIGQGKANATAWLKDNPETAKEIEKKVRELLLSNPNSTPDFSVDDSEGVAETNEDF

B1: His-tag RecA (natural protein, E. coli)
chain: T1 sequence
B2: His-tag AlkB (Escherichia coli alkylation repair protein-B) (enzyme, E. coli)
chain: MLDLFADAEPWQEPLAAGAVILRRFAFNAAEQLIRDINDVASQSPFRQMVTPGGYTMSVAMTNCGHLGWTTHRQGYLYSPIDPQTNKPWPAMPQSFHNLCQRAATAAGYPDFQPDACLINRYAPGAKLSLHQDKDEPDLRAPIVSVSLGLPAIFQFGGLKRNDPLKRLLLEHGDVVVWGGESRLFYHGIQPLKAGFHPLTIDCRYNLTFRQAGKKE

Experiments:
SEC = target: the molecule itself; assay: SEC
His-tag RecA = target: B1; assay: SEC
GST-RecA = target: T1, GST-RecA; assay: pull-down

Row | Binder | binding result (SEC) | binding result (His-tag RecA) | binding result (GST-RecA)
1 | B1 | binds |  | 
2 | B2 |  | binds | binds
